Key:
[1] = target: Wildtype, full-length human Gαi1 (human, UniProt P63096 1-354); assay: SPR
[2] = target: Gαi1(R178M/A326S) (human, UniProt P63096 1-354, R178M | A326S); assay: SPR
Gαi1(R178M/A326S), sequence (P63096 whole entry R178M/A326S): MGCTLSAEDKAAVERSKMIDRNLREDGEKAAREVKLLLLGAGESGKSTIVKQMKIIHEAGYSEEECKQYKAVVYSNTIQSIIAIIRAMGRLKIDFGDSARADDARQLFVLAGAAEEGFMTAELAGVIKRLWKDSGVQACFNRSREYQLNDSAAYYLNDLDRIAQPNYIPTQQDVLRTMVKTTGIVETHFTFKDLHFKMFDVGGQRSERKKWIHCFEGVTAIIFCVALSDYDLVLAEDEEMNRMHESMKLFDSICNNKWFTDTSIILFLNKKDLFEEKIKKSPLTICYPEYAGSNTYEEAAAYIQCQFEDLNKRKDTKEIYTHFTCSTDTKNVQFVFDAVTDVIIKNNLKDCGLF

Wildtype, full-length human Gαi1, sequence (P63096 whole entry): as the sequence (P63096 whole entry R178M/A326S) above, with M178R, S326A counted along it

B1: RGS16 (natural protein, human, UniProt O15492 1-202, looked up)
chain: MCRTLAAFPTTCLERAKEFKTRLGIFLHKSELGCDTGSTGKFEWGSKHSKENRNFSEDVLGWRESFDLLLSSKNGVAAFHAFLKTEFSEENLEFWLACEEFKKIRSATKLASRAHQIFEEFICSEAPKEVNIDHETHELTRMNLQTATATCFDAAQGKTRTLMEKDSYPRFLKSPAYRDLAAQASAASATLSSCSLDEPSHT
Kd [1]: 124 nM | Kd [2]: 115 nM

Reference: article PMC2795102 (Journal of biomolecular screening, 2009)
